Laboratory results taken from paper PMC3696110, “Hsp70 Oligomerization Is Mediated by an Interaction between the Interdomain Linker and the Substrate-Binding Domain” (PLoS ONE, 2013).
Several values for one entry are separate records, joined by “and”; a condition that tells them apart may be missing. Equal values may be shown once. Read-outs that look alike come from different tables or passages of the source.

Tests used:
peptide substrates = system: peptide substrates; set-up: method as in PMID 10876246; settings: two different peptide substrates; ref [3]; cited from earlier work
[1] = nESI-MS relative populations of oligomeric forms; format: physicochemical, human; settings: 6-15 µM protein, 150 mM ammonium acetate, pH 7.4, estimated error 5% (SD of 3-4 independent experiments)
Method: Prior to MS analysis, samples were buffer exchanged into 150 mM ammonium acetate, pH 7.4, using Micro Bio-spin 6 columns (Bio-Rad, Digilab Division, Cambridge, MA, USA). For all the experiments protein concentrations ranging from 6 to 18 µM were used. In the case of the substrate binding experiments, proteins were analyzed in the presence of a 1: 1 molar ratio of the NR peptide; this substrate concentration, lower than in the SEC experiments, was chosen to ensure adequate resolution of the various charge state series, which is critical for unambiguous assignment of substrate-bound states. Due to suppression effects during nESI ionization, a relatively limited set of molar ratios could be investigated by in this way.
nESI-MS spectra were obtained according to a previously published protocol on an orthogonal time-of-flight mass spectrometer with a Z-spray source (LCT, Waters, Manchester, UK) in positive ion mode using the following parameters: capillary voltage, 1500 V; sample cone voltage, 120 V (unless otherwise specified); extraction cone voltage, 1V; and ion transfer stage pressure, 8.8 mbar. Spectra were calibrated externally using a 33 mg/ml solution of cesium iodide. Data were acquired and processed with MassLynx software (Waters, Manchester, UK), and are shown with minimal smoothing and without background subtraction. The relative abundances of the different oligomeric states were estimated from the intensities of the most abundant charge states for each construct and are expressed as a percentage of the total intensity.

[2] = Analytical SEC relative populations of oligomeric forms; format: physicochemical, human; settings: Superdex 75, 4 °C; for Dimer population / Monomer population / Total oligomer population: 50 mM Tris pH 7.4, 150 mM KCl
Method: Analytical SEC was performed at 4 °C using a Superdex 75 10/300 GL column (GE Healthcare LifeSciences, Little Chalfont, U.K.), which had previously been calibrated using a mixture of standard proteins (Gel Filtration LMW Calibration Kit; GE Healthcare LifeSciences, Little Chalfont, U.K.). Typically, samples of the various constructs contained 70 µM of protein in 50 mM Tris buffer at pH 7.4, with 150 mM KCl, 5 mM MgCl2 and were incubated for 15 min (unless otherwise specified) at room temperature before being loaded onto the column for analysis. To evaluate the reversibility of the oligomerization process, the different elution peaks obtained for each protein variant were subsequently analyzed after concentrating the different fractions using AmiconUltra-0.5, Ultracel-3 Membrane, 3 kDa (Millipore, Bedford, MA, USA). A similar analysis was also performed at 6 µM concentration for all the protein variants to allow for a direct comparison between the results obtained by SEC and MS experiments.
The influence of substrate binding on the oligomerization properties of all the variants was examined by using the well-characterized Hsp70 substrate, the NR peptide (NRLLLTG, Genemed Synthesis Inc., San Antonio, TX, USA). A 14-fold excess of the peptide was added in each case to a fresh protein sample, incubated for 1 h at room temperature, unless otherwise specified, and then loaded onto the Superdex 75 10/300 GL column for analysis. The relative quantities of the different protein species were estimated by analysing the chromatographic profile using a Gaussian function for each elution peak (OriginPro 8, Originlab, Northampton, MA, USA) and measuring the relative area under each peak.

[3] = Secondary structure content from far-UV CD; format: physicochemical, human; settings: K2D software; 20 µM protein, 7 mM Tris pH 7.4, 170 mM KCl, 5 mM MgCl2; 25 °C
Method: Far-UV CD spectra for all protein variants were recorded using a Jasco J-810 spectropolarimeter equipped with a Peltier holder, using a 0.1 cm path length cuvette. Typically, samples contained 20 µM protein in 7 mM Tris buffer at pH 7.4, containing 170 mM KCl and 5 mM MgCl2. The far-UV CD spectra of all the variants in their native, thermally denatured and refolded states were recorded from 198 to 250 nm, and the spectrum of the buffer was systematically subtracted from the spectra of all protein samples. The secondary structure content was estimated from the far-UV CD spectrum for each protein variant using K2D software.

[4] = cited from earlier work; for Protein in oligomeric state: ref [30]
Source text: It has been shown, for example, that up ...

∆LSBD641 = experiment: Fluorescence competition assay of dansylated and non-dansylated NR peptide; format: binding, human
Method: Fluorescence competition assay. Samples containing 50 μM ∆LSBD641 and 2 μM dansylated-NR peptide (D-NR) in Tris 50 mM, pH 7.4, 150 mM KCl, 5 mM MgCl2 were incubated in the presence of different concentrations of non-dansylated NR peptide (ND-NR; 0, 50 and 200 μM) for 1h at room temperature and the dansyl fluorescence emission spectrum of each sample was recorded from 400 to 630 nm after excitation at 330 nm. The intensity at the maximum emission wavelength of three different samples for which ten spectra were recorded was averaged, and the fraction of bound D-NR peptide was then determined experimentally from the reduction in the fluorescence signal in relation to the reference sample without ND-NR peptide for which the fraction of bound D-NR peptide is known (83% of the D-NR peptide is bound in this conditions according to the affinity measured by fluorescence titration; see Figure […]
The fraction of bound D-NR peptide was theoretically calculated for each sample according to a competitive model where the two ligands bind to the same substrate-binding pocket in the chaperone and assuming different values for the affinity of the ND-NR peptide for ∆LSBD641 […]
fluorescence titration was 8 ± 2 μM).
From the mass balance of the total protein concentration (PT) in a two-ligands competitive model and substituting the concentration of each complex (PL1 and PL2, corresponding to the complex with D-NR and ND-NR peptide, respectively) by the expression obtained from the definition of the different dissociation constants, a third-order polynomial expression (A·P3 + B·P2 + C·P + D = 0) of the free concentration of protein (P) is obtained, where the coefficients of the different terms are:
(also on this page, place not known: dansylated - m M excitati on -NR sig nal ND -NR D -NR D -NR D -NR substrate -binding ND -NR K d D -NR ( PT) two -ligands substitut ing ( PL1 D -NR ND -NR third -order (A· P3 D ( P) Tdd TdTddTdTddTTTdd PKKD PKPkKLKLKKCPLLKKBA 21 211221212121 ;;;1 −= −−++=−+++==) […]
(1 picture or pasted object on this page, not shown here)

[5] = Thermal denaturation monitored by far-UV CD; format: physicochemical, human
Method: Protein structural stability was analyzed by monitoring the CD signal at 222 nm upon thermal denaturation. Thermal runs were performed from 5 to 90 °C at a rate of 1 °C. min^-1. Data points were acquired every 0.1 °C with a response time of 2 s and a bandwidth of […]. After thermal denaturation, each protein sample was cooled to the starting temperature, and a second denaturation curve recorded in order to analyse the degree of reversibility of the denaturation process. Analysis of the thermal unfolding curves was performed assuming a three-state unfolding model.

[6] = 70 µM protein, 5 mM MgCl2, 15 min at room temperature, estimated error 3.5% (SD of 3-4 independent experiments)
[7] = 6-15 µM protein, 5 mM MgCl2, estimated error 3.5% (SD of 3-4 independent experiments)

| Substance | Monomer population [1] | Trimer population [1] | Dimer population [2, 6] | Monomer population [2, 6] | Dimer population [2, 7] | Monomer population [2, 7] | Total oligomer population [2, 7] | Random-coil content estimated from far-UV CD [3] | α-helix content estimated from far-UV CD [3] | β-sheet content estimated from far-UV CD [3] | other results |
| --- | --- | --- | --- | --- | --- | --- | --- | --- | --- | --- | --- |
| DnaK 2-538: DnaK mutant protein lacking the C-terminal 100 residues, i.e. helices C-E and part of helix B |  |  |  |  |  |  |  |  |  |  | Association rate constants vs wild type DnaK (peptide substrates): unaffected; Dissociation rate constants vs wild type DnaK (peptide substrates): considerable increase |
| FL-Hsp70: full-length human Hsp70 1A, GenBank ID NP005336, recombinant N-hexa-His-tagged | 98% | 0% | 7% | 93% | 1% | 99% | 1% | 32% | 45% | 23% | Total oligomer population [1]: 2%; Oligomeric species ([2]; 220 µM protein, 50 mM Tris pH 7.4): 35% |
| BiP/Grp78: endoplasmic reticulum resident Hsp70 chaperone |  |  |  |  |  |  |  |  |  |  | Molecules existing as oligomers ([4]; in mammalian cells, ref [29]): 40-50%; Molecules existing as oligomers ([4]; in vitro, ca. 5 µM protein, ref [28]): 40-50% |
| dansylated NR peptide: NR peptide N-terminally labeled with dansyl fluorophore |  |  |  |  |  |  |  |  |  |  | Fraction of bound dansylated NR peptide, ∆LSBD641:ND-NR 1:1, experimentally determined (∆LSBD641; 50 μM ∆LSBD641, 2 μM D-NR, 50 μM ND-NR, Tris 50 mM pH 7.4, 150 mM KCl, 5 mM MgCl2, 1 h room temperature, average of three samples): 0.62 ± 0.1; Fraction of bound dansylated NR peptide, ∆LSBD641:ND-NR 1:4, experimentally determined (∆LSBD641; 50 μM ∆LSBD641, 2 μM D-NR, 200 μM ND-NR, Tris 50 mM pH 7.4, 150 mM KCl, 5 mM MgCl2, 1 h room temperature, average of three samples): 0.35 ± 0.1; D-NR peptide bound (∆LSBD641; 50 μM ∆LSBD641, 2 μM D-NR, no ND-NR, according to affinity from fluorescence titration): 83%; Affinity of dansylated vs non-dansylated NR peptide (∆LSBD641; fluorescence competition assay): essentially the same affinity |
| DnaK: bacterial Hsp70 homologue |  |  |  |  |  |  |  |  |  |  | Protein in oligomeric state ([4]; 0.5 mg/ml (ca. 7 µM)): approximately 20%; Protein in oligomeric state ([4]; 16 mg/ml (ca. 230 µM)): 70% |
| SBD556: truncated human Hsp70 (384-556), lacks helices C, D and E and C-terminal disordered region; L542Y mutation | 82% | 2% | 7% | 93% | 3% | 97% | 3% | 54% | 21% | 25% | Dimer population [1]: 16%; Total oligomer population [2, 6]: 7%; ∆Hm, 1st transition ([5]; CD 222 nm, 20 µM protein, 7 mM Tris pH 7.4, 170 mM KCl, 5 mM MgCl2, three-state fit (C-term two-state), SE of fit): 63.9 ± 1.9 kcal/mol; ∆Hm, 2nd transition ([5]; CD 222 nm, 20 µM protein, 7 mM Tris pH 7.4, 170 mM KCl, 5 mM MgCl2, three-state fit, SE of fit): 85.4 ± 2.6 kcal/mol; Tm, 1st transition ([5]; CD 222 nm, 5 to 90 °C at 1 °C/min, 20 µM protein, 7 mM Tris pH 7.4, 170 mM KCl, 5 mM MgCl2, three-state fit (C-term two-state), SE of fit): 46.8 ± 0.1 °C; Tm, 2nd transition ([5]; CD 222 nm, 5 to 90 °C at 1 °C/min, 20 µM protein, 7 mM Tris pH 7.4, 170 mM KCl, 5 mM MgCl2, three-state fit, SE of fit): 64.5 ± 0.1 °C and 64.5 ± 0.2 °C; Reversibility of thermal unfolding ([5]; far-UV CD, second denaturation curve after cooling): fully reversible |
